From US20250381289A1 (Genmab, published 2025)

What was measured:
[1] = biological target: T1, cMET on EGFR and cMET co-expressed tumor cell lines (UniProt P08581 25-1390, limits assumed); test: flow cytometry, NCI-H441 cells
T1 construct: whole, on cells

[2] = biological target: T1, cMET on EGFR and cMET co-expressed …; test: flow cytometry, NCI-H1975 cells
[3] = biological target: T1, cMET on EGFR and cMET co-expressed …; test: flow cytometry, MKN-45 cells
[4] = biological target: T1, cMET on EGFR and cMET co-expressed …; test: flow cytometry, MKN-45 cells; remark: listed apart in the source
[5] = biological target: T1, cMET on EGFR and cMET co-expressed …; test: flow cytometry, MKN-45 cells; remark: listed apart in the source
human cMET-Fc = biological target: T2, human cMET-Fc (human, UniProt P08581 25-932); test: blocking ELISA: coated human cMET-Fc, antibody titrated, then human HGF-His (blocked ligand), anti-His-HRP
T2 construct: not shown: Fc part, not described

Human EGFR = biological target: T3, Human EGFR (human, UniProt P00533); test: ELISA, plate coated with 100 ng/well human EGFR recombinant protein, HRP anti-human Fc, OD450
T3 construct: recombinant protein coated on the ELISA plate; also called human EGFR recombinant protein

[6] = biological target: T1, cMET on EGFR and cMET co-expressed …; test: flow cytometry on SNU-5 cells (co-express EGFR and cMET), PE anti-human Fc; signal of the whole bispecific, not resolved by arm
[7] = biological target: T4, EGFR on EGFR and cMET co-expressed tumor cell lines (UniProt P00533 25-1210, limits assumed); test: as above
T4 construct: whole, on cells

[8] = biological target: T1, cMET on EGFR and cMET co-expressed …; test: flow cytometry on EBC-1 cells (co-express EGFR and cMET), PE anti-human Fc; signal of the whole bispecific, not resolved by arm
[9] = biological target: T4, EGFR on EGFR and cMET co-expressed …; test: as above
[10] = biological target: T1, cMET on EGFR and cMET co-expressed …; test: flow cytometry on CAL-27 cells (co-express EGFR and cMET), PE anti-human Fc; signal of the whole bispecific, not resolved by arm
[11] = biological target: T4, EGFR on EGFR and cMET co-expressed …; test: as above
Human cMET = biological target: T5, Human cMET; test: ELISA, plate coated with 100 ng/well human cMET recombinant protein, HRP anti-human Fc, OD450
T5 construct: also called human cMET recombinant protein
T5 chain: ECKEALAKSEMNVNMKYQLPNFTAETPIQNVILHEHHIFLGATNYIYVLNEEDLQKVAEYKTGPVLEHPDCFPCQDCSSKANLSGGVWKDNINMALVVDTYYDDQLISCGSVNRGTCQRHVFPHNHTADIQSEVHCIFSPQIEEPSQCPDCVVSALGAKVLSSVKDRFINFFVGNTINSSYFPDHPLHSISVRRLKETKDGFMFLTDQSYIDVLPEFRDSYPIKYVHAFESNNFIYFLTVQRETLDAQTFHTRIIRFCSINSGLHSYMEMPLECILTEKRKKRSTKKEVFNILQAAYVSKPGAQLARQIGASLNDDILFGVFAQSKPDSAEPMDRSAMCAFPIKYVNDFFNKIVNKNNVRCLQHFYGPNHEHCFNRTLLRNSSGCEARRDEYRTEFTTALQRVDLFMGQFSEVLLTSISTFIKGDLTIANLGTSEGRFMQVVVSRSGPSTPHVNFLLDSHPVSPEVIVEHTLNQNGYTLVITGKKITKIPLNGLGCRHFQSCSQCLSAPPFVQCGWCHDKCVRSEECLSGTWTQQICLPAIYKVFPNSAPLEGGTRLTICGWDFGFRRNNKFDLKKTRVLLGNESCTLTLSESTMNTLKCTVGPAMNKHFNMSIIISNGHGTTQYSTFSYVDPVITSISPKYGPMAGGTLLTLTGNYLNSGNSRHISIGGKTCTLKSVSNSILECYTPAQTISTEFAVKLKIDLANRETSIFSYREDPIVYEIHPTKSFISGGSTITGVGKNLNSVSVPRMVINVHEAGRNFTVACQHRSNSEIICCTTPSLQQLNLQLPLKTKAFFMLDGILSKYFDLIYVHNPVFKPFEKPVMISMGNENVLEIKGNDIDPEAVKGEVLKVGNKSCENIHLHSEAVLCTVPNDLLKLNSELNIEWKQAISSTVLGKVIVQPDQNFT

[12] = biological target: T1, cMET on EGFR and cMET co-expressed …; test: flow cytometry, EBC-1 cells (co-express EGFR and cMET; both arms contribute)
[13] = biological target: T4, EGFR on EGFR and cMET co-expressed …; test: as above

B1: Onartuzumab (antibody, V domains shown)
VH: EVQLVESGGGLVQPGGSLRLSCAASGYTFTSYWLHWVRQAPGKGLEWVGMIDPSNSDTRFNPNFKDRFTISADTSKNTAYLQMNSLRAEDTAVYYCATYRSYVTPLDYWGQGTLVTVSS
VL: DIQMTQSPSSLSASVGDRVTITCKSSQSLLYTSSQKNYLAWYQQKPGKAPKLLIYWASTRESGVPSRFSGSGSGTDFTLTISSLQPEDFATYYCQQYYAYPWTFGQGTKVEIK
[1]
  EC50 (read off the curve): ~0.7 nM
[2]
  EC50 (read off the curve): ~0.4 nM
[3]
  EC50 (read off the curve): ~1 nM

B2: Telisotuzumab (antibody, V domains shown)
VH: QVQLVQSGAEVKKPGASVKVSCKASGYIFTAYTMHWVRQAPGQGLEWMGWIKPNNGLANYAQKFQGRVTMTRDTSISTAYMELSRLRSDDTAVYYCARSEITTEFDYWGQGTLVTVSS
VL: DIVMTQSPDSLAVSLGERATINCKSSESVDSYANSFLHWYQQKPGQPPKLLIYRASTRESGVPDRFSGSGSGTDFTLTISSLQAEDVAVYYCQQSKEDPLTFGGGTKVEIK
[4]
  EC50 (read off the curve): ~0.8 nM
[5]
  EC50 (read off the curve): ~1 nM
Human cMET-Fc
  IC50 (read off the curve): ~1 nM

B3: AZD9592 (bispecific antibody, human IgG1, kappa, lambda)
anti-EGFR heavy chain: QVQLVQSGAEVKKPGSSVKVSCKASGGTFSDNDFSWVRQAPGQGLEWMGAIVAVFRTETYAQKFQDRVKITADISTRTTYMELSSLRSEDTAVYYCARRLMSAISGPGAPLLMWGQGTLVTVSSASTKGPSVCPLAPSSKSTSGGTAALGCLVKDYFPEPVTVSWNSGALTSGVHTFPAVLQSSGLYSLSSVVTVPSSSLGTQTYICNVNHKPSNTKVDKRVEPKSVDKTHTCPPCPAPEFEGGPSVFLFPPKPKDTLMISRTPEVTCVVVDVSHEDPEVKFNWYVDGVEVHNAKTKPREEQYNSTYRVVSVLTVLHQDWLNGKEYKCKVSNKALPASIEKTISKAKGQPREPQVYTLPPCREEMTKNQVSLWCLVKGFYPSDIAVEWESNGQPENNYKTTPPVLDSDGSFFLYSKLTVDKSRWQQGNVFSCSVMHEALHNHYTQKSLSLSPGK
anti-EGFR light chain: QSALTQPRSVSGSPGQSVTISCTGTSSDVGGYNYVSWYQQHPGKAPKLMIYDVSKRPSGVPDRFSGSKSGNTASLTISGLQAEDEADYYCSSYTSSDTLEIFGGGTKLTVLGQPKAAPSVTLFPPCSEELQANKATLVCLISDFYPGAVTVAWKADSSPVKAGVETTTPSKQSNNKYAASSYLSLTPEQWKSHRSYSCQVTHEGSTVEKTVAPTEVS
anti-cMET heavy chain: QVQLVQSGAEVKKPGASVKVSCKASGYTFTDYYIHWVRQATGQGLEWMGWMNPNSGNTGYAQKFQGRVTMTRDTSISTAYMELSSLRSEDTAVYYCARGQGYTHSWGQGTMVTVSSASTKGPSVFPLAPSSKSTSGGTAALGCLVKDYFPEPVTVSWNSGALTSGVHTFPAVLQSSGLYSLSSVVTVPSSSLGTQTYICNVNHKPSNTKVDKRVEPKSCDKTHTCPPCPAPEFEGGPSVFLFPPKPKDTLMISRTPEVTCVVVDVSHEDPEVKFNWYVDGVEVHNAKTKPREEQYNSTYRVVSVLTVLHQDWLNGKEYKCKVSNKALPASIEKTISKAKGQPREPQVCTLPPSREEMTKNQVSLSCAVKGFYPSDIAVEWESNGQPENNYKTTPPVLDSDGSFFLVSKLTVDKSRWQQGNVFSCSVMHEALHNHYTQKSLSLSPGK
anti-cMET light chain: DIQMTQSPSTLSASVGDRVTITCRASEGIYHWLAWYQQKPGKAPKLLIYKASSLASGVPSRFSGSGSGTEFTLTISSLQPDDFATYYCQQYSNYPPTFGGGTKLEIKRTVAAPSVFIFPPSDEQLKSGTASVVCLLNNFYPREAKVQWKVDNALQSGNSQESVTEQDSKDSTYSLSSTLTLSKADYEKHKVYACEVTHQGLSSPVTKSFNRGEC
Human EGFR
  EC50 (read off the curve): ~1 nM
[6]
  EC50 (read off the curve): ~3 nM
[7]
  EC50 (read off the curve): ~3 nM
[8]
  EC50 (read off the curve): ~2 nM
[9]
  EC50 (read off the curve): ~2 nM
[10]
  EC50 (read off the curve): ~10 nM
[11]
  EC50 (read off the curve): ~10 nM
Human cMET
  EC50 (read off the curve): ~0.07 nM

B4: Bsab 44 (bispecific antibody, human IgG1, kappa, L234A L235A)
anti EGFR knob chain (scFab): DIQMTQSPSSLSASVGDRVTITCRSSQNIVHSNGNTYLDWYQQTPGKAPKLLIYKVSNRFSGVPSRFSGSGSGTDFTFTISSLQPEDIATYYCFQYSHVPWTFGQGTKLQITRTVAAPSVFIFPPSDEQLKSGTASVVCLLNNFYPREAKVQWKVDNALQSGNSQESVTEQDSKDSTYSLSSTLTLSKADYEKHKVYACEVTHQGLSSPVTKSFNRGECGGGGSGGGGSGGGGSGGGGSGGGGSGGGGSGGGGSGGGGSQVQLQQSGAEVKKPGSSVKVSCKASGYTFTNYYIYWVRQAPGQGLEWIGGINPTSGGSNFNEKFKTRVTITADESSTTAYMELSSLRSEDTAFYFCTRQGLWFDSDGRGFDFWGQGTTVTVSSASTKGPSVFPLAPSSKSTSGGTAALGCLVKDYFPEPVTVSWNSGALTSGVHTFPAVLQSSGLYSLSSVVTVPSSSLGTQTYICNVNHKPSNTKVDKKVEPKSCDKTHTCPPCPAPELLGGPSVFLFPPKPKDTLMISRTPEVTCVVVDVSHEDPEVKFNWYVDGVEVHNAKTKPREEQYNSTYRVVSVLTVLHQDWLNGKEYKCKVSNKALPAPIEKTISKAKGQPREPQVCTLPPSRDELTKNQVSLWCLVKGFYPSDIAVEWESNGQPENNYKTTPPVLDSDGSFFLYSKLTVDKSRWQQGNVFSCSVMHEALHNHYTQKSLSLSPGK
anti cMET hole chain (scFab): DIQMTQSPSSLSASVGDRVTITCKSSQSLLYTSSQKNYLAWYQQKPGKAPKLLIYWASTRESGVPSRFSGSGSGTDFTLTISSLQPEDFATYYCQQYYAYPWTFGQGTKVEIKRTVAAPSVFIFPPSDEQLKSGTASVVCLLNNFYPREAKVQWKVDNALQSGNSQESVTEQDSKDSTYSLSSTLTLSKADYEKHKVYACEVTHQGLSSPVTKSFNRGECGGGGSGGGGSGGGGSGGGGSGGGGSGGGGSGGGGSGGGGSEVQLVESGGGLVQPGGSLRLSCAASGYTFTSYWLHWVRQAPGKCLEWVGMIDPSNSDTRFNPNFKDRFTISADTSKNTAYLQMNSLRAEDTAVYYCATYRSYVTPLDYWGQGTLVTVSSASTKGPSVFPLAPSSKSTSGGTAALGCLVKDYFPEPVTVSWNSGALTSGVHTFPAVLQSSGLYSLSSVVTVPSSSLGTQTYICNVNHKPSNTKVDKKVEPKSCDKTHTCPPCPAPEAAGGPSVFLFPPKPKDTLMISRTPEVTCVVVDVSHEDPEVKFNWYVDGVEVHNAKTKPREEQYNSTYRVVSVLTVLHQDWLNGKEYKCKVSNKALPAPIEKTISKAKGQPREPQVYTLPPCREEMTKNQVSLSCAVKGFYPSDIAVEWESNGQPENNYKTTPPVLDSDGSFFLVSKLTVDKSRWQQGNVFSCSVMHEALHNHYTQKSLSLSPGK
[12]
  EC50 (read off the curve): ~2 nM
[13]
  EC50 (read off the curve): ~2 nM
